# In paper PMC12015215, “Structural basis of human Mediator recruitment by the phosphorylated transcription factor Elk-1” (Nature Communications, 2025):
# Like-named read-outs stand apart in the source and are kept apart here.
# T1: BAP-MED23-6His, biotinylated (human, UniProt Q9ULK4-1 1-1368, biotin on the BAP tag (biotinylated during expression))
# T1 construct: Mediator complex subunit MED23, human, isoform 1 (NM_004830.3); Captured by its biotin on a streptavidin SA chip; also called biotinylated MED23; MED23 with a BAP tag; source: insect cells (pFastBac Dual with BirA biotin ligase), purified by the same procedure as MED23-6His; not shown: BAP (biotin acceptor peptide), N-terminal, kept
# T1 sequence: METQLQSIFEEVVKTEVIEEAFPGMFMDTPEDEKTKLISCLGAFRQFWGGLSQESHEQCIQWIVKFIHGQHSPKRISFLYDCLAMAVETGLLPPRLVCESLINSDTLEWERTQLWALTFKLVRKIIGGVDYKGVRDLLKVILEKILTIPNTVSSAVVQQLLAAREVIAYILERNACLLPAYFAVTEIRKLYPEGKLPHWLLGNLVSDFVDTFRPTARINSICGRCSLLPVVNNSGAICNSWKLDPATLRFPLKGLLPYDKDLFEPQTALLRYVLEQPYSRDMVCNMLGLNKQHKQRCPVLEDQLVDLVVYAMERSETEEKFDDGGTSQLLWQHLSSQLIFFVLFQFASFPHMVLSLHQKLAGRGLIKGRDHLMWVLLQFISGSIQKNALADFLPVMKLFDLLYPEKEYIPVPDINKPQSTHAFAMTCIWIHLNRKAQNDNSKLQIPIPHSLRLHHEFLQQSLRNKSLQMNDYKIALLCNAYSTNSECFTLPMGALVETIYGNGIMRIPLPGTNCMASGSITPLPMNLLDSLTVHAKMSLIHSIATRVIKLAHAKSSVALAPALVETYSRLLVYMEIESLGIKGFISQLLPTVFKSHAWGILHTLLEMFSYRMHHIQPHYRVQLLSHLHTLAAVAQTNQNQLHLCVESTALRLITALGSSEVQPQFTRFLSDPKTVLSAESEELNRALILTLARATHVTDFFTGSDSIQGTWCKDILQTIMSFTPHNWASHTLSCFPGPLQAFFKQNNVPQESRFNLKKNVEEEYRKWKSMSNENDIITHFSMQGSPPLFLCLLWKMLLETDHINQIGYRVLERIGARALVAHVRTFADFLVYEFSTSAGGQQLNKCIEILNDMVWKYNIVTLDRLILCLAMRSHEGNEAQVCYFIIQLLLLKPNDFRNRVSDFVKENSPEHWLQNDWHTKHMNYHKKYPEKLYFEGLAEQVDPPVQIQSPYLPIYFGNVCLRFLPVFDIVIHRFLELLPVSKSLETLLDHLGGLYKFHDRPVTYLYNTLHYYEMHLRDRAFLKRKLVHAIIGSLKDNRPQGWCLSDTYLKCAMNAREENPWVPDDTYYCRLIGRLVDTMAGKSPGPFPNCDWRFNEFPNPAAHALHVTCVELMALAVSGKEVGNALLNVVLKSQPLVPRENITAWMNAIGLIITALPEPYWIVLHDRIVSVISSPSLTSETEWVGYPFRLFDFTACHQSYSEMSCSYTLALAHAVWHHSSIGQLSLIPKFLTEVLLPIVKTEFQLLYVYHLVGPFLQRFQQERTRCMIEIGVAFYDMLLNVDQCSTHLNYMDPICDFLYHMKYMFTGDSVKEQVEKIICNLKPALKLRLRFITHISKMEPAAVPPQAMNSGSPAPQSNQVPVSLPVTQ
# T2: MED23-6His (human Mediator complex subunit MED23, wild type) (human, UniProt Q9ULK4-1 1-1368)
# T2 construct: Mediator complex subunit MED23, human, isoform 1 (NM_004830.3); cloned before a rhinovirus 3C protease site followed by a 6xHis tag; The stored protein is named MED23-6His; cleavage by 3C protease is not reported; In the functional rows MED23 WT was expressed from PIN510A-1 or FC550A-1 plasmids in MED23-/- MEFs; also called MED23 WT; recombinant MED23; source: ExpiSF9 insect cells (baculovirus), …
# T2 sequence: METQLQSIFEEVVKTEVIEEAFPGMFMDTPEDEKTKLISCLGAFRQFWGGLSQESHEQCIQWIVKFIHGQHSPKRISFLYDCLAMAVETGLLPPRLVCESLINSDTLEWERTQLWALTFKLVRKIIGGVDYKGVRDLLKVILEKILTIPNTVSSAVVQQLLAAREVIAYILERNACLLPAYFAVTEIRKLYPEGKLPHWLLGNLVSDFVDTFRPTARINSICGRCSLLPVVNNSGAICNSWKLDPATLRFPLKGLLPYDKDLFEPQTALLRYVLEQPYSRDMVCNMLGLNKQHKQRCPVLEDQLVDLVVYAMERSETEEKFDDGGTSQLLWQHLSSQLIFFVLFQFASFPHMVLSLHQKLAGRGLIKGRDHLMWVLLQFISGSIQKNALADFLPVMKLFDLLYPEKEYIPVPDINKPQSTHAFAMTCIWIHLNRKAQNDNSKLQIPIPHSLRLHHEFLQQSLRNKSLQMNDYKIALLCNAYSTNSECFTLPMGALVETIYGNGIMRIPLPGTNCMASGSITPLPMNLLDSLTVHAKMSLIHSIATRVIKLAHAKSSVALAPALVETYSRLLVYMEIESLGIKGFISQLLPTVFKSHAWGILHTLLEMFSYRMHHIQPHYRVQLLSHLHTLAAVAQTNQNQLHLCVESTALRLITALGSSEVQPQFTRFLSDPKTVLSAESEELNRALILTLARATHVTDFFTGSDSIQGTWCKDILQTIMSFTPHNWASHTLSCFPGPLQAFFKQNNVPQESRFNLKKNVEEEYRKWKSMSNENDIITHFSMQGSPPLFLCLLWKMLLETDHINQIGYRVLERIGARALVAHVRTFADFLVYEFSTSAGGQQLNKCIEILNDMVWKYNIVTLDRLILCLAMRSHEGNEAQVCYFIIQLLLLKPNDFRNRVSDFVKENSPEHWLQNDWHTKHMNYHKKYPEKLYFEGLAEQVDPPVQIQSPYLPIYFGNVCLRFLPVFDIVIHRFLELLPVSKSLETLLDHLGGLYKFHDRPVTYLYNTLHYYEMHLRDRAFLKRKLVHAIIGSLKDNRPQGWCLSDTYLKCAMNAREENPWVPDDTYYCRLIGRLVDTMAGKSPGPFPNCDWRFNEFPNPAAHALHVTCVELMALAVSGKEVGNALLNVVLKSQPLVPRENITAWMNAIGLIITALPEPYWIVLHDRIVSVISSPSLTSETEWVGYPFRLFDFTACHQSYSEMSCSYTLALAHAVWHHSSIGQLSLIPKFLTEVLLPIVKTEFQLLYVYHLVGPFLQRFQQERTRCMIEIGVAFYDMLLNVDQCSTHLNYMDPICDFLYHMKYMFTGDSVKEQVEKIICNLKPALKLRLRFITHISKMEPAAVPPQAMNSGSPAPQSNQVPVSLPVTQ
# How the values were obtained:
# [1] = biological target: T1, BAP-MED23-6His, biotinylated; assay: SPR; BIAcore T200; biotinylated BAP-MED23 captured on a streptavidin SA chip (2000-3000 RU), PBS+ buffer; GST-fused Elk-1 derivatives injected at 0.25-4 µM, single-cycle kinetics in triplicate, 1:1 Langmuir model
# [2] = biological target: T2, MED23-6His (human Mediator complex …); assay: pull-down; 4 µg GST constructs immobilised on GST-Trap agarose; 20 µg recombinant MED23 or MED23 G382F, 90 min at 4 °C in PBS-casein; SDS-PAGE, Coomassie; settings: both partners purified
Molecule,Kd [1] [nM],other results
"GST-fused Elk-1^1P (S383P) (308–401)-6His, phosphorylated only at S383 (from UniProt P19419 308-401) (domain or fragment)",81,–
"GST-fused Elk-1^2P (T368P/S383P) (308–401)-6His, phosphorylated at T368 and S383 (from UniProt P19419 308-401) (domain or fragment)",42,–
"GST-fused Elk-1^2P (T368P/S389P) (308–401)-6His, phosphorylated at T368 and S389 (from UniProt P19419 308-401) (domain or fragment)",75,–
"GST-fused Elk-1^3P (308–401)-6His, phosphorylated at T368, S383 and S389 (domain or fragment, UniProt P19419 308-401, looked up, phosphorylated at T368, S383 and S389 by co-expressed ERK kinase, In pGEX-4T1 (synthesised by Genscript); also called triply phosphorylated Elk-1; source: E. coli BL21 (DE3), co-expressed with MBP-ERK2-GOF/MEK1DD, purified (GSTrap 4B and/or HisTap HP)) SQPQKGRKPRDLELPLSPSLLGGPGPERAPGSGSGSGLQAPGPALAPSLLPTHTLAPVLLTPSSLPPSIHFWSTLSPIAPRSPAKLSFQFPSSG",–,Kd ([1]; both partners purified): 60 nM
"phosphorylated GST-Elk-1^8P (308–428)-6His (domain or fragment, UniProt P19419 308-428, looked up, phosphorylated in E. coli by co-expressed ERK2-GOF/MEK1DD; which of the eight S/T-P sites carry phosphate is not stated, In pGEX-6P1; also called Elk-1 TAD; Gal4-Elk-1^8P (308–428) in the reporter assays; source: E. coli BL21 (DE3), co-expressed with MBP-ERK2-GOF/MEK1DD, purified (GSTrap 4B and/or HisTap HP); not shown: GST, N-terminal, kept) SQPQKGRKPRDLELPLSPSLLGGPGPERTPGSGSGSGLQAPGPALTPSLLPTHTLTPVLLTPSSLPPSIHFWSTLSPIAPRSPAKLSFQFPSSGSAQVHIPSISVDGLSTPVVLSPGPQKP",–,binding result [2]: binds
